Data on 1 molecule can be found in PMC10611921, “Assessing the dynamics and macromolecular interactions of the intrinsically disordered protein YY1” (Bioscience Reports, 2023).

The series deals with YY1;FOXP2 FHD (human?;human?, UniProt P25490;O15409 1-414;504-594, |). The series can be described thus: EMSA; FOXP2 FHD 2.5-10 uM added; large complex more intense and slightly shifted; simultaneous binding suggested; Anisotropy: 10 mM HEPES pH 7.5, 100 mM NaCl, 20 C; EMSA: 0.5 uM DNA, 20% (v/v) of binding buffer (10 mM HEPES pH 7.5, 1 mM MgCl2, 100 mM KCl, 10% glycerol, 0.1). Particulars: protein: recombinant;recombinant; tags: N-terminal His6;His6 removed with thrombin. On the technique in general: Mobility shift assays separate free from complexed probe on a gel.
Chain of YY1;FOXP2 FHD (P25490 whole entry, chain 1 of 2): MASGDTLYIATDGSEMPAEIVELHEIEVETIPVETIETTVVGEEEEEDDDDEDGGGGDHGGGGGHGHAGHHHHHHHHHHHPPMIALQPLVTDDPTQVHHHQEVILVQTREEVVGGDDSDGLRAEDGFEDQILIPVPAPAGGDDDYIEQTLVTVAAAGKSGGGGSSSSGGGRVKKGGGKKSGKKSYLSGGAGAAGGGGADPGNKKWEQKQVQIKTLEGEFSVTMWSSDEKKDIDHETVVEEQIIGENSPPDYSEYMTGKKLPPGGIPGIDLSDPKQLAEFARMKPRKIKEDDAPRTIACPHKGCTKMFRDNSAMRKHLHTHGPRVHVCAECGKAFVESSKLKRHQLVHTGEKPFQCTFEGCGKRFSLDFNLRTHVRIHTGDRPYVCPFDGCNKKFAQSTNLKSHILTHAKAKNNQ
Chain of YY1;FOXP2 FHD (O15409 504-594, chain 2 of 2): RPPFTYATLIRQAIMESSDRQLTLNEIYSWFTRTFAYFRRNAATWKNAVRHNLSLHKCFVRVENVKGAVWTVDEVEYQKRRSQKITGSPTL

B1: AAV P5 DNA (dsDNA)
DNA 1: AGGGTCTCCATTTTGAAGCG
DNA 2: CGCTTCAAAATGGAGACCCT
As to B1, the binding result is “binds”.
